Laboratory results reported in patent US20250236642A1, “PHARMACEUTICAL COMPOSITION FOR TREATMENT OR PREVENTION OF ADULT T-CELL LEUKEMIA” (NEC Corporation, priority 2022, published 2025).

biological target: HLA-A*02:06 molecule; experiment: flow cytometry, RA2.6 cells; conditions: not given

**Q.** YTYDPPTTI [peptide of SEQ ID NO: 3] was tested. Which -log Kd value did it give?
**A.** -5.17

biological target: HLA-A*02:01 molecule; experiment: flow cytometry, T2 cells; conditions: not given

**Q.** How did the -log Kd value turn out when IQYSSFHNL (modifications not checked) [peptide of SEQ ID NO: 21] was run?
**A.** -5.29

**Q.** With ALQFLIPRL (modifications not checked) [peptide of SEQ ID NO: 22] as the binder, how does the -log Kd value read?
**A.** -5.9

**Q.** Which -log Kd value does the source give for IALETPVWI (modifications not checked) [peptide of SEQ ID NO: 20] here?
**A.** -5.11

**Q.** Which -log Kd value does the source give for ALPAPHLTL (modifications not checked) [peptide of SEQ ID NO: 18] here?
**A.** -5.99

**Q.** How did the -log Kd value turn out when YQLSPPITW (modifications not checked) [peptide of SEQ ID NO: 32] was run?
**A.** -3.46

**Q.** With ALQPPCPNL (modifications not checked) [peptide of SEQ ID NO: 31] as the binder, how does the -log Kd value read?
**A.** -5.13

biological target: HLA-A*02:01 molecule; experiment: flow cytometry, T2 cells; conditions: not given; remark: another data set of the same source

**Q.** With YQLSPPITW (modifications not checked) [peptide of SEQ ID NO: 32] as the binder, how does the -log Kd value read?
**A.** -3.46

biological target: HLA-A*24:02 molecule; experiment: flow cytometry, C1R-A24 cells; conditions: not given

**Q.** For YQLSPPITW (modifications not checked) [peptide of SEQ ID NO: 32], which -log Kd value is on record?
**A.** -5.76

biological target: HLA-A*02:06 molecule; experiment: flow cytometry, RA2.6 cells; conditions: not given; remark: another data set of the same source

**Q.** With CIDEHQWQL [peptide of SEQ ID NO: 28] as the binder, how does the -log Kd value read?
**A.** -5.25

**Q.** Which -log Kd value does the source give for LIEEHGATL [peptide of SEQ ID NO: 40] here?
**A.** -4.81

**Q.** Which -log Kd value does the source give for LAEEHGATL [peptide of SEQ ID NO: 61] here?
**A.** -4.5

**Q.** How did the -log Kd value turn out when ILSDHQQSQ [peptide of SEQ ID NO: 70] was run?
**A.** > -3

**Q.** How did the -log Kd value turn out when KFLEAFHEV [peptide of SEQ ID NO: 8] was run?
**A.** -5.81

**Q.** Which -log Kd value does the source give for GSPDEFSND [peptide of SEQ ID NO: 72] here?
**A.** > -3

**Q.** How did the -log Kd value turn out when SLPNEKQTS [peptide of SEQ ID NO: 69] was run?
**A.** > -3

**Q.** How did the -log Kd value turn out when LTEEHGATL [peptide of SEQ ID NO: 42] was run?
**A.** -4.92

**Q.** With YTYDPPTTI [peptide of SEQ ID NO: 3] as the binder, how does the -log Kd value read?
**A.** -6.17

**Q.** For SLVLTWAAL [peptide of SEQ ID NO: 14], which -log Kd value is on record?
**A.** -6.24

**Q.** Which -log Kd value does the source give for LMITRKSFI [peptide of SEQ ID NO: 17] here?
**A.** -4.53

**Q.** With SPDEFSNDF [peptide of SEQ ID NO: 73] as the binder, how does the -log Kd value read?
**A.** > -3

**Q.** For CMIVHQGTI [peptide of SEQ ID NO: 36], which -log Kd value is on record?
**A.** -4.37

**Q.** Which -log Kd value does the source give for LLITRKSFI [peptide of SEQ ID NO: 16] here?
**A.** -4.63

**Q.** For LLNPNRQTI [peptide of SEQ ID NO: 23], which -log Kd value is on record?
**A.** -3.53

**Q.** For ALAPPTAQL [peptide of SEQ ID NO: 6], which -log Kd value is on record?
**A.** -6.41

**Q.** With LAITRKSFI [peptide of SEQ ID NO: 46] as the binder, how does the -log Kd value read?
**A.** -3.04

**Q.** For THLDAGTVE [peptide of SEQ ID NO: 75], which -log Kd value is on record?
**A.** > -3

**Q.** For ATLAPAVLL [peptide of SEQ ID NO: 10], which -log Kd value is on record?
**A.** -6.12

**Q.** For ALRPAPALL [peptide of SEQ ID NO: 26], which -log Kd value is on record?
**A.** > -3.37

**Q.** For ASPSHMTSM [peptide of SEQ ID NO: 81], which -log Kd value is on record?
**A.** > -3

**Q.** How did the -log Kd value turn out when AQISAYRTC [peptide of SEQ ID NO: 50] was run?
**A.** -4.09

**Q.** Which -log Kd value does the source give for VLLQQFQTA [peptide of SEQ ID NO: 15] here?
**A.** -5.47

**Q.** How did the -log Kd value turn out when YVYDPPTTI [peptide of SEQ ID NO: 2] was run?
**A.** -5.55

**Q.** VMSHHGEKL [peptide of SEQ ID NO: 19] was tested. Which -log Kd value did it give?
**A.** -4.3

**Q.** EAIDGYITL [peptide of SEQ ID NO: 47] was tested. Which -log Kd value did it give?
**A.** -4.72

**Q.** IFADVSSST [peptide of SEQ ID NO: 78] was tested. Which -log Kd value did it give?
**A.** > -3

**Q.** How did the -log Kd value turn out when ATAPPTAQL [peptide of SEQ ID NO: 25] was run?
**A.** -6.16

**Q.** Which -log Kd value does the source give for FSNDFGQSL [peptide of SEQ ID NO: 35] here?
**A.** -4.71

**Q.** YFFTVIFSF [peptide of SEQ ID NO: 44] was tested. Which -log Kd value did it give?
**A.** > -4.4

**Q.** How did the -log Kd value turn out when GILSDHQQS [peptide of SEQ ID NO: 74] was run?
**A.** > -3

**Q.** LLEEHGATL [peptide of SEQ ID NO: 41] was tested. Which -log Kd value did it give?
**A.** -5.3

**Q.** How did the -log Kd value turn out when ALPKIRARV [peptide of SEQ ID NO: 12] was run?
**A.** -4.78

**Q.** How did the -log Kd value turn out when SSFEFFEEA [peptide of SEQ ID NO: 37] was run?
**A.** -7.42

**Q.** How did the -log Kd value turn out when ETLQFIDSM [peptide of SEQ ID NO: 53] was run?
**A.** -3.37

**Q.** How did the -log Kd value turn out when STGESAQTS [peptide of SEQ ID NO: 71] was run?
**A.** > -3

**Q.** Which -log Kd value does the source give for GYITLGKPH [peptide of SEQ ID NO: 80] here?
**A.** > -3

**Q.** LMEEHGATL [peptide of SEQ ID NO: 13] was tested. Which -log Kd value did it give?
**A.** -5.68

**Q.** How did the -log Kd value turn out when YLYDPPTTI [peptide of SEQ ID NO: 4] was run?
**A.** -5.87

**Q.** For LPPARHSTI [peptide of SEQ ID NO: 76], which -log Kd value is on record?
**A.** > -3

**Q.** With LIITRKSFI [peptide of SEQ ID NO: 29] as the binder, how does the -log Kd value read?
**A.** -3.64

**Q.** For CTDEHQWQL [peptide of SEQ ID NO: 39], which -log Kd value is on record?
**A.** -6.8

**Q.** AQAPPTAQL [peptide of SEQ ID NO: 5] was tested. Which -log Kd value did it give?
**A.** -5.85

**Q.** Which -log Kd value does the source give for ARHSTIPLV [peptide of SEQ ID NO: 77] here?
**A.** > -3

**Q.** How did the -log Kd value turn out when LLLFSAAAL [peptide of SEQ ID NO: 1] was run?
**A.** -4.96

**Q.** With LTITRKSFI [peptide of SEQ ID NO: 45] as the binder, how does the -log Kd value read?
**A.** -3.79

**Q.** With GTHLDAGTV [peptide of SEQ ID NO: 51] as the binder, how does the -log Kd value read?
**A.** -3.66

**Q.** Which -log Kd value does the source give for VMQIDGVQP [peptide of SEQ ID NO: 67] here?
**A.** -3.41

**Q.** LHEEHGATL [peptide of SEQ ID NO: 79] was tested. Which -log Kd value did it give?
**A.** > -3

**Q.** For LVITRKSFI [peptide of SEQ ID NO: 30], which -log Kd value is on record?
**A.** -3.61

**Q.** How did the -log Kd value turn out when LVEEHGATL [peptide of SEQ ID NO: 43] was run?
**A.** -4.86

**Q.** For ISAYRTCWI [peptide of SEQ ID NO: 34], which -log Kd value is on record?
**A.** -3.14

**Q.** For MLPQTPSHL [peptide of SEQ ID NO: 24], which -log Kd value is on record?
**A.** -3.96

biological target: HLA-A*24:02 molecule; experiment: flow cytometry, C1R-A24 cells; conditions: not given; remark: another data set of the same source

**Q.** Which -log Kd value does the source give for IQYSSFHNL (modifications not checked) [peptide of SEQ ID NO: 21] here?
**A.** -6.53

**Q.** For ALQFLIPRL (modifications not checked) [peptide of SEQ ID NO: 22], which -log Kd value is on record?
**A.** -4.96

**Q.** Which -log Kd value does the source give for IALETPVWI (modifications not checked) [peptide of SEQ ID NO: 20] here?
**A.** -5.48

**Q.** Which -log Kd value does the source give for ALPAPHLTL (modifications not checked) [peptide of SEQ ID NO: 18] here?
**A.** -6.73

**Q.** With YQLSPPITW (modifications not checked) [peptide of SEQ ID NO: 32] as the binder, how does the -log Kd value read?
**A.** -6.76

**Q.** With ALQPPCPNL (modifications not checked) [peptide of SEQ ID NO: 31] as the binder, how does the -log Kd value read?
**A.** -5.31

same assay, conditions: remark: other sources report otherwise

**Q.** For YPGWHSTTI [peptide of SEQ ID NO: 52], which -log Kd value is on record?
**A.** -5.66
